Laboratory results taken from patent publication US11015206B2, “Compositions and methods comprising sequences having hydroxyphenylpyruvate dioxygenase (HPPD) activity” (PIONEER HI-BRED INTERNATIONAL, INC., priority 2014, dated 2021).

B1: SEQ ID NO 1 (protein)
chain: MGPTPTAAAAGAAVAAASAAEQAAFRLVGHRNFVRFNPRSDRFHTLAFHHVELWCADAASAAGRFSFGLGAPLAARSDLSTGNSAHASLLLRSGSLSFLFTAPYAHGADAATAALPSFSAAAARRFAADHGLAVRAVALRVADAEDAFRASVAAGARPAFGPVDLGRGFRLAEVELYGDVVLRYVSYPDGAAGEPFLPGFEGVASPGAADYGLSRFDHIVGNVPELAPAAAYFAGFTGFHEFAEFTTEDVGTAESGLNSMVLANNSENVLLPLNEPVHGTKRRSQIQTFLDHHGGPGVQHMALASDDVLRTLREMQARSAMGGFEFMAPPTSDYYDGVRRRAGDVLTEAQIKECQELGVLVDRDDQGVLLQIFTKPVGDRPTLFLEIIQRIGCMEKDEKGQEYQKGGCGGFGKGNFSQLFKSIEDYEKSLEAKQAAAAAAAQGS
modifications: Zea mays
B2: P056028-G-05 (protein)
chain: MGPTPTATAAGAAVAAASAAEQAAFRLVGHRNFVRFNPRSDRFQTLAFHHVELWCADAASAAGRFSFALGVPLAARSDLSTGNSAHASLLLRSGSLSLLFTAPYAHGADAATAALPSFSAAAARRFAADHGLAVRAVALRVADAEDAFRASVAAGARPAFGPVDLGRGFRLAEVELYGDVVLRYVSYPDGGAGEPFLPGFEGVASQGAADLGLNRFDHIVGNVPELAPAAAYMAGFTGFHEFAEFTTEDVGTTESGLNSMALANNSENVLLPLNEPVHGTKRRSQIQTFLDHHGGPGVQHIALASDDVLRTLREMRARSAMGGFEFLPPPLSDYYDGVRKCAGDVLTEAQINECQELGVMVDRDDEGVLLQIFTKPVGDRPTFFIEIIQRIGCMEKDEKGQEYQKGGCGGFGKGNFQQLFKSIEDYEKSLEAKRAAAAATAQGS
modifications: Zea mays variant form created by artificial means.
B3: P056028-G-09 (protein)
chain: MGPTPTATAAGAAVAAASAAEQAAFRLVGHRNFVRFNPRSDRFQTLAFHHVELWCADAASAAGRFSFALGVPLAARSDLSTGNSAHASLLLRSGSLSLLFTAPYAHGADAATAALPSFSAAAARRFAADHGLAVRAVALRVADAEDAFRASVAAGARKAFGPVDLGRGFRLAEVELYGDVVLRYVSYPDGAAGEPFLPGFEGVASPGAADYGLSRFDHIVGNVPELAPAAAYMAGFTGFHEFAEFTTEDVGTTESGLNSMALANNSENVLLPLNEPVHGTKRRSQIQTFLDHHGGPGVQHIALASDDVLRTLREMRARSAMGGFEFLPPPLSDYYDGVRRCAGDVLTEAQINECQELGVMVDRDDEGVLLQIFTKPVGDRPTFFLEIIQRIGCVEKDEKGQEYQKGGCGGFGKGNFGQLFKSIEDYEKSLEAKQAAAAATAQGS
modifications: Zea mays variant form created by artificial means.
B4: P056028-G-08 (protein)
chain: MGPTPTATAAGAAVAAASAAEQAAFRLVGHRNFVRFNPRSDRFQTLAFHHVELWCADAASAAGRFSFALGVPLAARSDLSTGNSAHASLLLRSGSLSLLFTAPYAHGADAATAALPSFSAAAARRFAADHGLAVRAVALRVADAEDAFRASVAAGARPAFGPVDLGRGFRLAEVELYGDVVLRYVSYPDGAAGEPFLPGFEGVASPGAADLGLSRFDHIVGNVPELAPAAAYMAGFTGFHEFAEFTTEDVGTTESGLNSMALANNSENVLLPLNEPVHGTKRRSQIQTFLDHHGGPGVQHIALASDDVLRTLREMRARSAMGGFEFLPPPLSDYYDGVRKCAGDVLTEAQINECQKLGVMVDRDDEGVLLQIFTKPVGDRPTFFLEIIQRIGCMEKDEKGQEYQKGGCGGFGKGNFGQLFKSIEDYEKSLEAKQAAAAATAQGS
modifications: Zea mays variant form created by artificial means.
B5: P056028-G-07 (protein)
chain: MGPTPTATAAGAAVAAASAAEQAAFRLVGHRNFVRFNPRSDRFQTLAFHHVELWCADAASAAGRFSFALGVPLAARSDLSTGNSAHASLLLRSGSLSLLFTAPYAHGADAATAALPSFSAAAARRFAADHGLAVRAVALRVADAEDAFRASVAAGARPAFGPVDLGRGFRLAEVELYGDVVLRYVSYPDGAAGEPFLPGFEGVASQGAADYGLSRFDHIVGNVPELAPAAAYMAGFTGFHEFAEFTTEDVGTTESGLNSMALANNSENVLLPLNEPVHGTKRRSQIQTFLDHHGGPGVQHIALASDDVLRTLREMRARSAMGGFEFLPPPLSDYYDGVRKCAGDVLTEAQINECQRLGVMVDRDDEGVLLQIFTKPVGDRPTFFLEIIQRIGCMEKDEKGQEYQKGGCGGFGKGNFGQLFKSIEDYEKSLEAKQAAAAATAQGS
modifications: Zea mays variant form created by artificial means.
B6: P056028-G-06 (protein)
chain: MGPTPTATAAGAAVAAASAAEQAAFRLVGHRNFVRFNPRSDRFQTLAFHHVELWCADAASAAGRFSFALGVPLAARSDLSTGNSAHASLLLRSGSLSLLFTAPYAHGADAATAALPSFSAAAARRFAADHGLAVRAVALRVADAEDAFRASVAAGARPAFGPVDLGRGFRLAEVELYGDVVMRYVSYPDGAAGEPFLPGFEGVASQGAADYGLNRFDHIVGNVPELAPAAAYMAGFTGFHEFAEFTTEDVGTTESGLNSMALANNSENVLLPLNEPVHGTKRRSQIQTFLDHHGGPGVQHIALASDDVLRTLREMRARSAMGGFEFLPPPLSDYYDGVRKCAGDVLTEAQINECQELGVMVDRDDEGVLLQIFTKPVGDRPTFFLELIQRIGCMEKDEKGQEYQKGGCGGFGKGNFGQLFKSIEDYEKSLEAKQAAAAATAQGS
modifications: Zea mays variant form created by artificial means.

How the values were obtained:
Format in all cases: biochemical, Z. mays
[1] = tested on: 4-hydroxyphenylpyruvate dioxygenase (HPPD); test: OFF rate ratio: release of inhibitor from pre-formed enzyme-inhibitor complex; settings: for OFF rate ratio: Table 7, tembotrione, combinatorial variants
In short: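 Inhibitor release from pre-formed complex (enzyme 7.2 μM, inhibitor 8 μM, 1 h RT) tracked as accelerating HPPD activity at 320 nm over 12 min, coupled via 50 nM HGD with 100 μM HPP at pH 7. OFF rate ratio: steady-state velocity relative to uninhibited initial velocity.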

[2] = tested on: 4-hydroxyphenylpyruvate dioxygenase (HPPD); test: ON rate ratio: HPPD reaction rate with vs without inhibitor in the 70 to 90 second interval; settings: for ON rate ratio: Table 7, tembotrione, combinatorial variants
In short: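 Indicator of inhibitor on-rate: reaction velocity in the 70 to 90 second window with 4 μM inhibitor divided by that without. Reactions contained 100 μM HPP and 60 or 120 nM HPPD; slower binding gives a larger ratio.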

[3] = tested on: 4-hydroxyphenylpyruvate dioxygenase (HPPD); test: Estimate of kcat from initial rate at saturating hydroxyphenylpyruvate without inhibitor (ON rate ratio assay)
In short: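 kcat was estimated from the initial reaction rate with known enzyme level (60 or 120 nM HPPD). Hydroxyphenylpyruvate was at a saturating 100 μM, with no inhibitor present.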

[4] = tested on: 4-hydroxyphenylpyruvate dioxygenase (HPPD); test: Insensitivity parameter (ON × OFF) and trait fitness (ON × OFF × kcat/KM or × kcat); design: key to ON × OFF / Insensitivity, mesotrione, ON × OFF / Insensitivity, tembotrione, ON × OFF / Insensitivity, topramezone, ON × OFF / Insensitivity, sulcotrione, ON × OFF / Insensitivity, isoxaflutole (DKN), ON × OFF: insensitivity = ON rate ratio × OFF rate ratio (surrogate for KD)
In short: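 Trait fitness combines catalysis and insensitivity as kcat/KM × ON rate ratio × OFF rate ratio. The insensitivity parameter is the product of ON and OFF rate ratios, used in place of KD because the ON rate ratio is inverse.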

[5] = Table 7, combinatorial variants
[6] = Table 7, tembotrione, combinatorial variants

| Molecule | OFF Rat. (OFF ratio parameter) ([1]; Megatable 2) | ON Rat. (ON ratio parameter) ([2]; Megatable 2) | kcat ([3]; Megatable 2, single substitutions, positions numbered per SEQ ID NO:1) | ON × OFF (product of ON ratio and OFF ratio) ([4]; Megatable 2) | ON × OFF kcat (product of ON ratio, OFF ratio and kcat) ([4]; Megatable 2) | Fold vs. wt (ON × OFF versus wild-type SEQ ID NO:1) ([4]; Megatable 2, fold of ON × OFF) | Fold vs. wt (ON × OFF × kcat versus wild-type SEQ ID NO:1) ([4]; Megatable 2, fold of ON × OFF × kcat) | OFF rate ratio [1] | ON rate ratio [2] | kcat ([3]; Megatable 3, shuffled variants) | kcat [3, 5] | ON × OFF ([4]; Megatable 3, shuffled variants) | ON × OFF × kcat ([4]; Megatable 3, shuffled variants) | ON × OFF [4, 6] | ON × OFF × kcat [4, 6] |
| --- | --- | --- | --- | --- | --- | --- | --- | --- | --- | --- | --- | --- | --- | --- | --- |
| B1 | 0.03 | 0.17 | 210 min⁻¹ | 0.0051 | 1.07 | 1.00 | 1.00 | – | – | – | – | – | – | – | – |
| B2 | – | – | – | – | – | – | – | 0.361 | 0.739 | 16.7 min⁻¹ | 16.7 min⁻¹ | 0.267 | 4.47 | 0.267 | 4.47 |
| B3 | – | – | – | – | – | – | – | 0.385 | 0.716 | 15.8 min⁻¹ | 15.8 min⁻¹ | 0.275 | 4.37 | 0.275 | 4.37 |
| B4 | – | – | – | – | – | – | – | 0.379 | 0.737 | 11.8 min⁻¹ | 11.8 min⁻¹ | 0.279 | 3.29 | 0.279 | 3.29 |
| B5 | – | – | – | – | – | – | – | 0.304 | 0.702 | 15.3 min⁻¹ | 15.3 min⁻¹ | 0.213 | 3.23 | 0.213 | 3.23 |
| B6 | – | – | – | – | – | – | – | 0.382 | 0.725 | 12 min⁻¹ | 12 min⁻¹ | 0.277 | 3.30 | 0.277 | 3.30 |
